Experiment: soluble on expression in E. coli; label from the status in PepcDB or PDB records

Sequence	soluble on expression in E. coli
MIVDTSVWIAYLSTSESLASRWLADRIAADSTVIVPEVVMMELLIGKTDEDTAALRRRLLQRFAIEPLAPVRDAEDAAAIHRRCRRGGDTVRSLIDCQVAAMALRIGVAVAHRDRDYEAIRTHCGLRTEPLF	not soluble
MELWLVRHGETLWNREGRLLGWTDLPLTAEGEAQARRLKGALPSLPAFSSDLLRARRTAELAGFSPRLYPELREIHFGALEGALWETMDPRYKEALLRFQGFHPPGGESLSAFQERVFRFLEGLKAPAVLFTHGGVVRAVLRALGEDGLVPPGSAVAVDWPRRVLVRLALDGEEATG	soluble
MGSDKIHHHHHHMEYINEVTINEAIIHVLDNSSEGVVFNEVELELNEETYEYILKHIQKCLKDEELKYAVFNVERNLAKELSQEYLDGKSDIVSVSKELASQLFVIMKSNGNIPSCDLLTAAITTEYGRMLVVLKMDYVKNYTHNIDVVDDKVEINIIPQFIGLPSSGQKIQKCAFIKPIREENNFDLMVIDKNSGKKDEDEYGSNYFINNYLGCKIINNERDLTKTFVKSAEKWTQKNLKDNADAAELVRTSIKKRLKEDDSININEVSDEIFGENKEAKDNFVEFIKKQGIEEKIELDKQWVENKMKRTRLKIDKDIDLYINEETYNDSSRFEIKRNGDGTINMIIKQVRNYVEK	not soluble
MGSDKIHHHHHHMEIHSSAAAEVFPVCRSLLGKLPAHSHNRSVAPTVCDYYPQIMKTYNSKMTTQHSSDIRNSQNISASFVTPHDAPVTSRKYVPKFNSNNHRIKTAAAFEKGSDIYHAVRPNYPNSVIELLNLSPNSRVLDIGCGTGKLTEQIAQQTSSVYALDPSKDMLDSFRSTLDIPSWQATAEQTAVSDSRFSTLTCAQTWHWVEPLAASAELDRISTDDAQLLLVWNTLDVSVPWVHRLSRIMHSGDTLAEGFIPHVAQPWELVSVLRGKHAQELYPDQIHTLAHTRSYWLRASEKTREKLTHNLSWYLTDHLELPSTSLVEIPYRFDAFLYKKALVKTQ	not soluble
MPLVSMKEMLIDAKENGYAVGQYNINNLEFTQAILEASQEENAPVILGVSEGAARYMSGFYTIVKMVEGLMHDLNITIPVAIHLDHGSSFEKCKEAIDAGFTSVMIDASHSPFEENVATTKKVVEYAHEKGVSVEAELGTVGGQEDDVVADGIIYADPKECQELVEKTGIDALAPALGSVHGPYKGEPKLGFKEMEEIGLSTGLPLVLHGGTGIPTKDIQKAIPFGTAKINVNTENQIASAKAVRDVLNNDKEVYDPRKYLGPAREAIKETVKGKIKEFGTSNRAK	not soluble
MGSDKIHHHHHHMAILNISELEQVEKFRQLQLTLRDRWKTIESFDNSEADILIIPSLSIDQRELQKIEGCEHYEERLLFSLIRLQNPRTRLIYVTSVPLHPSIIDYYLQLLPGIPFSHARNRLLLLSTYDSSLKPLSQKILERPRLLERIHQSLRLDKSFMICYNSSHWEGELSLKLGVPLYAAAPDLQIWGTKSGSRQIFKGSGVPHPDGSEKIWNHTDLAEATSDLWERQPTLKRVVVKLNEGISGEGNALLDLRPIENLAPGIGTHAQRVAAISDRFSTMRFQAKLETWDNFSGRIPELGAIAEAFVEGEIKRSPSVQGRITPTGEVEILSTHDQILGGPDGQIYLGCRFPADESYRLQLQQLGLQVGRTLAEKGTLERFGVDFIAVDKGNGEWDIQAIEINLRKGGTTHPFMTLKLLTNGRYDLSTGLFYSQQGRPKYYIATDNLQKERYQGLLPNDLMDIIAHHRLHFDSGTETGTVFHLMGCLSQFGKLGLTSIGDSPQQAQDIYNKVVKVLDEETRSENRDFSAFSDYSFPVAWDEYR	not soluble
MAHHHHHHMLYLKEIELGNYYICNLNDYPSEHCVVDYDPNKRIKFLCPIVHNEGEHMNTYNSSYCFTYEGIKDRLIIRNNEEPIYTTLPGIILENQILYDRYNLGIYIMPFKLEADMSIVCVCDTKKEYKGITPYIKINIKNSNNVLGVGSSDEYIKGCDFGNNKGKHQFLTSPQSHEHRSVCAILANPGDIVGINCINYNEDDPQNNDVTLEPSNCFSTVSFSLYTFSFVKMNINNILPDAKYYPETSAFPKDPNFKKFSTTSYLWIPANVPQAFFLVCSCKYAKGEGTAMYHVSSSTLEV	not soluble
MQDAACARRFVEAFGKRAYRRPLTPEEADAYAALFGQGSFREGVEATITHMLVSPNFLYRSELEHHHHHH	not soluble
MVTETLSRKADYNANKLRKRLRRLVGTAIADFNMIEKGDRVMVCLSGGKDSYALLDILRNLQAHAPLDFELIAVNLDQKQPGFPEHVLPGYLSEINMPFRIVEQDTYSVVKRVIAEGKTTCSLCSRLRRGVLYRVATELGATKIALGHHRDDILETFFLNMFYGGKLKAMPPKLVSDDGCHVVIRPLAYCKEKDLAAYAWHAQFPIIPCNLCGSQPNLQRQVIKEMMQQWDKKYPGRLETMFTALQNIQLSHLADTSRYDFVGLKPHGIAIEEGDKAFDEEPLSVIPVDMDHDDDSTFEPENEHDGGAVQGGVI	not soluble
MNVLKQQITASIAKDIAFRLGAELNDEEADIFADGYNAAMLQNCNVVTSGKPLTITLPDTSSKAFWSSTGKNETFHPETYKRQVKEAIERSCVIAGIGVEVK	not soluble
MNWLDICSLDEINPLGSRVVAGPKGDIAIFRAADDQVFALDDRCPHKGGPLSQGLIYGKRVACPLHNWQIELESGEAVAPDQGCAHRHPVRVENGRVLLGLDSVALCA	not soluble
GPGSMVQRTLFDFVSKKGDNATTEEVGSKTESGQPSASSRKRTAEDQVANGGASNLTRARVAKENNGALASLIVDPGWEAFLKPLTTSSNFERIEKFLEGELNAGKTILPPREMIFSAFNSTPLDMLKVVLLGQDPYHNVGQAHGLCFSVLPGVPPPPSLINMYKELATDIPGFVAPQHGYLQHWAEQGVLMLNATLTVEIHKANSHATCGWQTFTDDVIRLLSEKHKNPLVFLLWGGFAKRKISLIDRKRHVVIECAHPSPLSAAKWWGSRPFSKCNTALVEKKLSPIDWKLPVCLSKGK	not soluble
MCSKNSENSNVPRAKSDFITPNCSENTKLFMIFQSRKSIICEVCGKKYSSKSALAKHKRTHETDKRCKIKLIFGSSQKKTQKLYFLQKLSFLDADFFSILERNLLIFGYFAIFFSQKNTYISRFTCPMCYASFDLSDPFKIHLRKHDNLKPFGCSYCFKQFSSRSVCRRHVQLMHENQKRAGDGDNDDDDDID	not soluble
MMDEEGAALPVWSRRLQQLTERSGLSQAELARRAGMSRDTYNRYCRGLTRPPRKKVLALAELFGVETWEIDPLEAGIAALRRESERSLEALGEQPIPSTPPYTLSPPSSGDPRMMHLRVDVDVRIETALRIAELLNREGSS	not soluble
MSLAEVAEVSEQDFGEILAQTRQFVRTAVVPREQEILDGDRVPDDLRDQARKMGLFGYAIPQQWGGLGLNLMQDVELAMELGYTSLALRSMFGTNNGIAGQVLVGFGTEAQKARWLEPMAAGDVVASFALTEPGAGSNPAGLRTKAVADGDNWVISGQKRFITNAPVADLFVVFARTRPADDQGPGIAVFLVPADAAGVQVGAKDAKMGQEGAWTADVSFDDVRVGGDALIGGSENIGYRAAMTSLARGRVHIAALAVGAAQRALDESVSYAATATQGGTPIGNFQLVQAMLADQQTEVLAGRALVREAARLWVTGEDRRVAPSAAKLYCTEMAGRVADLAVQVHGGSGYMRGVPVERIYRDVRLLRLYEGTSEIQRLIIGSNLVKAAQREGHHHHHH	soluble
MGSDKIHHHHHHMEKRLDYITDLMALGPTANARTIQRRQTAHRLAIAEAWQVKPGEKILEIGCGQGDLSAVLADQVGSSGHVTGIDIASPDYGAPLTLGQAWNHLLAGPLGDRLTVHFNTNLSDDLGPIADQHFDRVVLAHSLWYFASANALALLFKNMAAVCDHVDVAEWSMQPTALDQIGHLQAAMIQGLLYAIAPSDVANIRTLITPDTLAQIAHDNTWTYTAGTIVEDPTLDDAHWEIATTNALLTELKLSTDLRDRVKPLLEAMSHNGTASLATFTGRITF	not soluble
MKIVAFNGSPRKGGNTELLIKEVFKPIQEAGIETELVQLGGKLLRGCASCYTCFKTKDGKCAIKTDPMNEFIQKAQEADGIILASPTYYGSVSAEMKAFMDRLGLTTIGQGRTLTRKVGAAVISVRRGGAVTVYDELNRFMLGSGMIVPGSTYWNFGIGEMPGEVFDDAEGLRNMKDLGVQLAWLLKAIHNLEHHHHHH	soluble
MSLNVVNSIFSKLSIAPMIDWTNSPFRTLMRLLAPNALLYTEMQTTGAVQNNPDRALYFNSVEHPLAIQLGGADKSALVKCAIIAEQKGFNEINLNLGCPSDKVQAGRFGACLMKEPEHVADCIRAIKQVVGIPVTAKTRIGIDNQDSYEFFRSFSLHLVEAGCDKLIIHARKAWLNGLNPKQNRTIPPVNYDYVYELKKEIPHIFITINGNILTVEEINNHLKHVDGVMLGRLACDNPYQIAEIHQALYPEFIKIKRSQLLMNYLDYWFDQSRANEGHHHHHH	not soluble
MPPFYKRLHRKKDGRELFLYGLMPLEGPPLPEDAEPFRPAPHLRYHPLRGEWVVYAAHRQGRTFLPPKEHCPLCPSREGGFPTEIPFPSFQVAVFENRFPSFVEEAPPPPEGLPVPAGRALGRCEVVVYTPAHTGSLATLTEEERLLLAWAWRDRYEALYALPGVRFVMPFENRGEAVGVTLHHPHGQIYAYPFVPPVLERESQAFRERPVLLRLFPSLGPYVVDEEEGFLAFVPPFARYPFEVWVAPVERHPGPWTFSEGEMAAFARLLGRVVARYDALFGEPFPYVMVFHAAPLGEEATFHFHVEFYPPRRTRDKLKFLAGTELGAGTFVVDALPEETAKALRAALP	soluble
MGSDKIHHHHHHMTYPKRIPINAWSEVHRVARPLIITFDAYNTLYATKLPVMEQYCIVGRKYGIKANPSTLTNNFPHVFKKLKEDYPQYGKYSGIKPEQWWSILIRNVFAPNEIPDEMINEILMRFEGFDSYFVYPDLIKFLKDLKSRHPDVILGIVSNTDPIFYKLLKNIGLFETFSGHIYLSYELNLAKPDRAIFQYALDDIISKQPHLLEKYTREEILQHCFHIGDELKNDLEGAEAAGWTGILLDRNDKYGFLSNSISKPMRDEYKLSIDKIDNNSINTWEANTKQTDTLQLSERKYVVSNLEVLEELFP	not soluble
MPCRLTRLFGIEFPIIQAPMAGVQGSALAIAVSEAGGLGSLPCAMLSLEALEAELTAIRSQTAKPINVNFFCHREPVAQAAKQAAWLEQLAPYFAEFNLDPNAQPAGAQRTPYSKAQAEVLAKFKPEVVSFHFGLPDEELLLEIKSWGSKVISTATTVEEALWLEARGADAIIAQGLEAGGHRGHFLSEDLTEQLGTFSLLPQIIAAVEIPVIAAGGIVDATTVRAAMTMGASAVQVGTAYLLCPECNTSAIHREALQSDAAQHTALTNLFSGRPARGIVNRFMAEMGPMNEAVPDFPLASSAVAGLRTAAERLGFWDFSPLWCGQNASGCRAIPAADLTRSFVLSLPSSCVEPQEKSGAAALEHHHHHH	not soluble
SNAMDFHIRKATNSDAEAIQHVATTSWHHTYQDLIPSDVQDDFLKRFYNVETLHNRISATPFAVLEQADKVIGFANFIELEKGKSELAAFYLLPEVTQRGLGTELLEVGMTLFHVPLPMFVNVEKGNETAIHFYKAKGFVQVEEFTEDFYGYPLETIRFNLNH	soluble
MSITIFNRDLKEIYYEKQYKNGQLKFLYNTILGRMLLKLFISTRLFSKINAIFNNNKGSIKKIEPFINEYKIDMSEYEKKEYTSFDDFFTRKILEGKRSFSKEKSHLISPADSKLMVYEIDDDLKMNIKNSIYTVGELLNDEKLSREYKNGTCLIFRLTVDDYHRYCFIDDGSLKYRKVINGRLHTVGPISSKRYKVYSENNREYSVLKTRNFGKVIQIEVGALLVGKIKNHSIKVFKKGDEKGYFCFGGSTIVLLFKEKVIKMDEDILEYSKAGIETKIKMGEKIGETNDLEHHHHHH	soluble
